Article PMC10786891, “Massively parallel profiling of RNA-targeting CRISPR-Cas13d”

Biological target: T1, EsCas13d, nuclease-dead (Eubacterium siraeum, UniProt B0MS50, R295A;H300A;R849A;H854A)
T1 sequence: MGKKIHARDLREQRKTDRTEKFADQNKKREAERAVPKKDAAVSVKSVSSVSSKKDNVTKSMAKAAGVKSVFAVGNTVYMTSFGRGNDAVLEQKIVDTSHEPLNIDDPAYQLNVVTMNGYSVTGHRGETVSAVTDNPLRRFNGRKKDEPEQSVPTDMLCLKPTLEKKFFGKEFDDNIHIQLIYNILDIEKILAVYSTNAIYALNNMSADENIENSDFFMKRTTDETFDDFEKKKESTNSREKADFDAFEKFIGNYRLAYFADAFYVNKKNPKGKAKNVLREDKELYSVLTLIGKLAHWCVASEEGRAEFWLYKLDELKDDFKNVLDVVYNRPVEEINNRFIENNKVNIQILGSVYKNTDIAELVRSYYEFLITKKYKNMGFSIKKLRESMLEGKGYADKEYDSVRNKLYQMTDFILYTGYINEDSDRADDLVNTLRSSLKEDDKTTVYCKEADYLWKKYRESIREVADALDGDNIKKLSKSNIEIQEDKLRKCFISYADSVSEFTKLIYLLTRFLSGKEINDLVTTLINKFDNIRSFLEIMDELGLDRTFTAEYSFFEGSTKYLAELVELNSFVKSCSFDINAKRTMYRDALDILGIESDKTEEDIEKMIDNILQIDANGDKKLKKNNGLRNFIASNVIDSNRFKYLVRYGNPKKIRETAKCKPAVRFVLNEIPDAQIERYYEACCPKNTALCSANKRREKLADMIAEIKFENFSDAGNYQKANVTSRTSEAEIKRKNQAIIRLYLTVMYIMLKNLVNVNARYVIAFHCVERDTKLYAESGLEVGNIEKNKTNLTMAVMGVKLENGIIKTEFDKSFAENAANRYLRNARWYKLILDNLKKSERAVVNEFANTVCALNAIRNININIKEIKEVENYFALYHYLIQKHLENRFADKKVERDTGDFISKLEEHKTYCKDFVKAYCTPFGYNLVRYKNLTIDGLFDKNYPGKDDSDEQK
Experiment: crRNA (strand 1, pre-loaded); Mg2+; 40 mM Tris-HCl pH 7.5, 150 mM NaCl, 6 mM MgCl2, 1 mM DTT, 0.1% Tween-20, 0.2 mg/ml BSA; 25 C; 10 min per concentration, then washed
Details: tags: His6-TwinStrep-SUMO cleaved; N-terminal SNAP kept (SNAP-Surface 488); label: 3' end held by stalled T7 RNA polymerase

B1: target 3 insG 3' of 10,insU 3' of 3 (mixed)
RNA 1: CACCCGUGCAAAAUUGCAGGGGUCUAAAACGACCUGAAUAUUUCAGAUCAAA
RNA 2: GGGAAUGGAUCCACAUCUACGAAUUCGUUUUUGAUCUGAAAUGAUUCAGGUUCUGCAGAUCGGAAGAGCACACGU
  Kd: 111 ± 28.5 nM

B2: target 3 C1A,G3U (mixed)
RNA 1: CACCCGUGCAAAAUUGCAGGGGUCUAAAACGACCUGAAUAUUUCAGAUCAAA
RNA 2: GGGAAUGGAUCCACAUCUACGAAUUCGUUUUUGAUCUGAAAUAUUCAGUUAUGCAGAUCGGAAGAGCACACGU
  Kd: ~75 nM

B3: target 3 G4U,U8G (mixed)
RNA 1: CACCCGUGCAAAAUUGCAGGGGUCUAAAACGACCUGAAUAUUUCAGAUCAAA
RNA 2: GGGAAUGGAUCCACAUCUACGAAUUCGUUUUUGAUCUGAAAUAGUCAUGUCUGCAGAUCGGAAGAGCACACGU
  Kd: 16.4 ± 2.35 nM

B4: target 3 insU 3' of 22,insU 3' of 22 (mixed)
RNA 1: CACCCGUGCAAAAUUGCAGGGGUCUAAAACGACCUGAAUAUUUCAGAUCAAA
RNA 2: GGGAAUGGAUCCACAUCUACGAAUUCGUUUUUUUGAUCUGAAAUAUUCAGGUCUGCAGAUCGGAAGAGCACACGU
  Kd: 24.1 ± 3 nM

B5: target 3 insG 3' of 9,insA 3' of 7 (mixed)
RNA 1: CACCCGUGCAAAAUUGCAGGGGUCUAAAACGACCUGAAUAUUUCAGAUCAAA
RNA 2: GGGAAUGGAUCCACAUCUACGAAUUCGUUUUUGAUCUGAAAUAGUUACAGGUCUGCAGAUCGGAAGAGCACACGU
  Kd: 43.5 ± 5.5 nM

B6: target 3 insG 3' of 8,insG 3' of 7 (mixed)
RNA 1: CACCCGUGCAAAAUUGCAGGGGUCUAAAACGACCUGAAUAUUUCAGAUCAAA
RNA 2: GGGAAUGGAUCCACAUCUACGAAUUCGUUUUUGAUCUGAAAUAUGUGCAGGUCUGCAGAUCGGAAGAGCACACGU
  Kd: 37.4 ± 3.15 nM

B7: target 3 insG 3' of 16,insA 3' of 2 (mixed)
RNA 1: CACCCGUGCAAAAUUGCAGGGGUCUAAAACGACCUGAAUAUUUCAGAUCAAA
RNA 2: GGGAAUGGAUCCACAUCUACGAAUUCGUUUUUGAUCGUGAAAUAUUCAGGUACUGCAGAUCGGAAGAGCACACGU
  Kd: 75 ± 30 nM

B8: target 3 G3U,G4C (mixed)
RNA 1: CACCCGUGCAAAAUUGCAGGGGUCUAAAACGACCUGAAUAUUUCAGAUCAAA
RNA 2: GGGAAUGGAUCCACAUCUACGAAUUCGUUUUUGAUCUGAAAUAUUCACUUCUGCAGAUCGGAAGAGCACACGU
  Kd: 10.5 ± 1 nM

B9: target 3 C1U,A12G (mixed)
RNA 1: CACCCGUGCAAAAUUGCAGGGGUCUAAAACGACCUGAAUAUUUCAGAUCAAA
RNA 2: GGGAAUGGAUCCACAUCUACGAAUUCGUUUUUGAUCUGAGAUAUUCAGGUUUGCAGAUCGGAAGAGCACACGU
  Kd: 60 ± 13.5 nM

B10: target 3 insG 3' of 6,insC 3' of 5 (mixed)
RNA 1: CACCCGUGCAAAAUUGCAGGGGUCUAAAACGACCUGAAUAUUUCAGAUCAAA
RNA 2: GGGAAUGGAUCCACAUCUACGAAUUCGUUUUUGAUCUGAAAUAUUCGACGGUCUGCAGAUCGGAAGAGCACACGU
  Kd: 11.4 ± 1.1 nM

B11: target 3 insU 3' of 22,insA 3' of 21 (mixed)
RNA 1: CACCCGUGCAAAAUUGCAGGGGUCUAAAACGACCUGAAUAUUUCAGAUCAAA
RNA 2: GGGAAUGGAUCCACAUCUACGAAUUCGUUUUUAUGAUCUGAAAUAUUCAGGUCUGCAGAUCGGAAGAGCACACGU
  Kd: 28 ± 4 nM

B12: target 3 insA 3' of 22,insC 3' of 2 (mixed)
RNA 1: CACCCGUGCAAAAUUGCAGGGGUCUAAAACGACCUGAAUAUUUCAGAUCAAA
RNA 2: GGGAAUGGAUCCACAUCUACGAAUUCGUUUAUUGAUCUGAAAUAUUCAGGUCCUGCAGAUCGGAAGAGCACACGU
  Kd: 84.5 ± 23.5 nM

B13: target 3 insC 3' of 7,insC 3' of 5 (mixed)
RNA 1: CACCCGUGCAAAAUUGCAGGGGUCUAAAACGACCUGAAUAUUUCAGAUCAAA
RNA 2: GGGAAUGGAUCCACAUCUACGAAUUCGUUUUUGAUCUGAAAUAUUCCACGGUCUGCAGAUCGGAAGAGCACACGU
  Kd: 108 ± 18.5 nM

B14: target 3 U2C,U7G (mixed)
RNA 1: CACCCGUGCAAAAUUGCAGGGGUCUAAAACGACCUGAAUAUUUCAGAUCAAA
RNA 2: GGGAAUGGAUCCACAUCUACGAAUUCGUUUUUGAUCUGAAAUAUGCAGGCCUGCAGAUCGGAAGAGCACACGU
  Kd: 86 ± 33 nM

B15: target 3 C6U,A11C (mixed)
RNA 1: CACCCGUGCAAAAUUGCAGGGGUCUAAAACGACCUGAAUAUUUCAGAUCAAA
RNA 2: GGGAAUGGAUCCACAUCUACGAAUUCGUUUUUGAUCUGAACUAUUUAGGUCUGCAGAUCGGAAGAGCACACGU
  Kd: 63 ± 17.6 nM

B16: target 3 C1U,G3U (mixed)
RNA 1: CACCCGUGCAAAAUUGCAGGGGUCUAAAACGACCUGAAUAUUUCAGAUCAAA
RNA 2: GGGAAUGGAUCCACAUCUACGAAUUCGUUUUUGAUCUGAAAUAUUCAGUUUUGCAGAUCGGAAGAGCACACGU
  Kd: 45.5 ± 11.5 nM

B17: target 3 C1U (mixed)
RNA 1: CACCCGUGCAAAAUUGCAGGGGUCUAAAACGACCUGAAUAUUUCAGAUCAAA
RNA 2: GGGAAUGGAUCCACAUCUACGAAUUCGUUUUUGAUCUGAAAUAUUCAGGUUUGCAGAUCGGAAGAGCACACGU
  Kd: 25.1 ± 3.15 nM

B18: target 3 del5 (mixed)
RNA 1: CACCCGUGCAAAAUUGCAGGGGUCUAAAACGACCUGAAUAUUUCAGAUCAAA
RNA 2: GGGAAUGGAUCCACAUCUACGAAUUCGUUUUUGAUCUGAAAUAUUCGGUCUGCAGAUCGGAAGAGCACACGU
  Kd: 65.5 ± 12.5 nM

B19: target 3 insA 3' of 22,insG 3' of 1 (mixed)
RNA 1: CACCCGUGCAAAAUUGCAGGGGUCUAAAACGACCUGAAUAUUUCAGAUCAAA
RNA 2: GGGAAUGGAUCCACAUCUACGAAUUCGUUUAUUGAUCUGAAAUAUUCAGGUCGUGCAGAUCGGAAGAGCACACGU
  Kd: 34.5 ± 7.5 nM

B20: target 3 insG 3' of 9,insG 3' of 5 (mixed)
RNA 1: CACCCGUGCAAAAUUGCAGGGGUCUAAAACGACCUGAAUAUUUCAGAUCAAA
RNA 2: GGGAAUGGAUCCACAUCUACGAAUUCGUUUUUGAUCUGAAAUAGUUCAGGGUCUGCAGAUCGGAAGAGCACACGU
  Kd: 60 ± 13.5 nM

B21: target 3 MT (mixed)
RNA 1: CACCCGUGCAAAAUUGCAGGGGUCUAAAACGACCUGAAUAUUUCAGAUCAAA
RNA 2: GGGAAUGGAUCCACAUCUACGAAUUCGUUUUUGAUCUGAAAUAUUCAGGUCUGCAGAUCGGAAGAGCACACGU
  Kd: 15.6 ± 0.185 nM

B22: target 3 G4C,A12U (mixed)
RNA 1: CACCCGUGCAAAAUUGCAGGGGUCUAAAACGACCUGAAUAUUUCAGAUCAAA
RNA 2: GGGAAUGGAUCCACAUCUACGAAUUCGUUUUUGAUCUGAUAUAUUCACGUCUGCAGAUCGGAAGAGCACACGU
  Kd: 110 ± 45 nM

B23: target 3 G3U (mixed)
RNA 1: CACCCGUGCAAAAUUGCAGGGGUCUAAAACGACCUGAAUAUUUCAGAUCAAA
RNA 2: GGGAAUGGAUCCACAUCUACGAAUUCGUUUUUGAUCUGAAAUAUUCAGUUCUGCAGAUCGGAAGAGCACACGU
  Kd: 22.9 ± 2.2 nM

B24: target 3 insG 3' of 11,insU 3' of 4 (mixed)
RNA 1: CACCCGUGCAAAAUUGCAGGGGUCUAAAACGACCUGAAUAUUUCAGAUCAAA
RNA 2: GGGAAUGGAUCCACAUCUACGAAUUCGUUUUUGAUCUGAAAGUAUUCAGUGUCUGCAGAUCGGAAGAGCACACGU
  Kd: 55.5 ± 10.5 nM

B25: target 3 U2A,A12G (mixed)
RNA 1: CACCCGUGCAAAAUUGCAGGGGUCUAAAACGACCUGAAUAUUUCAGAUCAAA
RNA 2: GGGAAUGGAUCCACAUCUACGAAUUCGUUUUUGAUCUGAGAUAUUCAGGACUGCAGAUCGGAAGAGCACACGU
  Kd: 38 ± 6 nM

B26: target 1 insC 3' of 14 (mixed)
RNA 1: CACCCGUGCAAAAAUGCAGGGGUCUAAAACUGAGCGGAUAACCUCUCUAUGG
RNA 2: GGGAAUGGAUCCACAUCUACGAAUUCGUACCAUAGAGACGGUUAUCCGCUCACCGAGAUCGGAAGAGCACACGU
  Kd: 43 ± 6 nM

B27: target 1 insC 3' of 20 (mixed)
RNA 1: CACCCGUGCAAAAAUGCAGGGGUCUAAAACUGAGCGGAUAACCUCUCUAUGG
RNA 2: GGGAAUGGAUCCACAUCUACGAAUUCGUACCACUAGAGAGGUUAUCCGCUCACCGAGAUCGGAAGAGCACACGU
  Kd: 6.4 ± 0.4 nM

B28: target 1 A20U,C21A (mixed)
RNA 1: CACCCGUGCAAAAAUGCAGGGGUCUAAAACUGAGCGGAUAACCUCUCUAUGG
RNA 2: GGGAAUGGAUCCACAUCUACGAAUUCGUACAUUAGAGAGGUUAUCCGCUCACCGAGAUCGGAAGAGCACACGU
  Kd: 29 ± 5 nM
